The values that follow come from US20220177594A1.

To fix the notation:
B1: mouse: canine 09E09 chimera (antibody, V domains shown)
VH: DVKLVESGEGLVKPGGSLKLSCAASGFTFSSYAMSWVRQTPEKRLEWVAYISSGGDYIYYADTVKGRFTISRDNARNTLYLQMSSLKSEDTAMYYCTRDPITGTFAYWGQGTLVTVSA
VL: DLQMTQTTSSLSASLGDRVTISCRASQDINNYLNWYQQKPDGTVKLLIYYTSTLHSGVPSRFSGSGSGTDYSLTISNLEQEDIATYFCQQGNTLPWTFGGGTKLEIKR
B2: mouse: canine 10F07 chimera (antibody, V domains shown)
VH: B1 VH with A49T, I58F
VL: B1 VL with L2I, N30T, Y71F, N92H, T93M
B3: mouse: canine 19F07 chimera (antibody, V domains shown)
VH: EVKLVESEGGLVQPGSSMKLSCTASGFTFSDYYMAWVRQVPEKGLEWVANINYDGSSTYYLDSLKSRFIISRDNAKNILYLQMSSLKSEDTATYYCARGLTWDFDVWGTGTTVTVSS
VL: DIVMTQSHKFMSPSVGDRVSITCKASQDVDTAVAWYQQKPGQSPKLLIYLASTRHTGVPDRFTGSGSGTDFTLTISNVQSEDLADYFCQQYSRFPLTFGAGTKLELKR
B4: mouse: canine 02D09 chimera (antibody, V domains shown)
VH: EVQLVESGGGLVKPGGSLTLSCAASGFTFSDYGMHWLRQAPEKGLEWVAYISSGSRAVFFADTVKGRFTISRDNAKNTLFLQMTSLRSDDTAMYYCARDRYDGRGFAYWGQGTLVTVSA
VL: DIVLTQSPATLSVTPGDSVSLSCRASQSISNNLHWYQQTSHESPRLLITYASQSISGIPSRFSGSGSGTDFTLSINSVETEDFGMYFCQQSNSWPLTFGAGTKLELKR

Residue numbers refer to the chain shown, from its start.

The first experiment concerns the target Canine_OSMR_hlgG1_Fc (canine). The experiment can be described thus: SPR Biacore. In general terms: In SPR one partner is held on a chip, and binding of the other changes the refractive index at the surface.
With B1, the Kd (commonly a measure of binding affinity in units of concentration) was found to be 3.83 nM; the koff (commonly the rate constant with which the complex falls apart) came out at 0.0021 s⁻¹; the kon (as a rule, the second-order rate constant of association) is 572000 M⁻¹ s⁻¹.

On to B2, for which the Kd amounted to 6.13 nM, the koff amounted to 0.000302 s⁻¹ and the association rate constant (kon) was determined as 49400 M⁻¹ s⁻¹.

In the case of B3, the Kd amounted to 7.49 nM, the koff was found to be 0.000775 s⁻¹ and the kon worked out at 88400 M⁻¹ s⁻¹.

The next experiment addresses Feline_OSMR_hlgG1_Fc (feline). The experiment can be described thus: SPR Biacore.
For the molecule B1, the Kd turned out to be 1.24 nM, the koff was 0.000945 s⁻¹ and the kon was 759000 M⁻¹ s⁻¹.

Molecule B2 had a Kd of 1.57 nM, a koff of 0.000346 s⁻¹ and a kon of 220000 M⁻¹ s⁻¹.

The molecule B4 registered a Kd of 9.08 nM, a koff of 0.00119 s⁻¹ and a kon of 131000 M⁻¹ s⁻¹.

As for B3, the Kd is 0.312 nM, the koff came out at 8.06e-05 s⁻¹ and the on-rate constant (kon) was 242000 M⁻¹ s⁻¹.

The target in another experiment is Canine_OSMR_hlgG1_Fc (canine). Briefly: SPR Biacore, OSMR on chip.
Chain of Canine_OSMR_hlgG1_Fc (canine) (chain, as listed by the source limits assumed, form in doubt): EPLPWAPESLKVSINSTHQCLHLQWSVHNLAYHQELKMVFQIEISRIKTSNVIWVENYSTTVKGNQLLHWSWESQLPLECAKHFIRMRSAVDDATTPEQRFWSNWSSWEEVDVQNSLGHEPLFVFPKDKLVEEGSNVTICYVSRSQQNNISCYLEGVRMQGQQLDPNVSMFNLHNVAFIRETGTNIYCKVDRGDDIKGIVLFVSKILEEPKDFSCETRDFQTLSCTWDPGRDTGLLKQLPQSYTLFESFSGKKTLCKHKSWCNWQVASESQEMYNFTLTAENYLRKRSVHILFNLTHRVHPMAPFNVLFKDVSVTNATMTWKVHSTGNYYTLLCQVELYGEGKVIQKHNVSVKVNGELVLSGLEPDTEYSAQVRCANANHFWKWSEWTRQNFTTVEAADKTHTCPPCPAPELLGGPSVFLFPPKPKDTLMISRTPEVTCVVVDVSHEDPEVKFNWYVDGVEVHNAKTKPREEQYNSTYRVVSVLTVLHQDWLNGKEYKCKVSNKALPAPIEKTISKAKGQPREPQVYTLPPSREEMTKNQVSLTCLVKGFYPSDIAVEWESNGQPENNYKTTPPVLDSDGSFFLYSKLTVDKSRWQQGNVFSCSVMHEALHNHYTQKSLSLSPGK
On to B1, for which the Kd amounted to 5.29 nM, the koff was 0.00104 s⁻¹ and the kon stood at 196000 M⁻¹ s⁻¹.

B2: the Kd came to 1.38 nM, the dissociation rate constant (koff) amounted to 0.000222 s⁻¹ and the kon worked out at 161000 M⁻¹ s⁻¹.

Molecule B4 registered a Kd of 12.8 nM, a koff of 0.00328 s⁻¹ and a kon of 256000 M⁻¹ s⁻¹.

Turning to B3, the Kd is 442 nM, the koff turned out to be 0.00084 s⁻¹ and the kon came to 1900 M⁻¹ s⁻¹.

The target in another experiment is Feline_OSMR_hlgG1_Fc (feline). The experiment can be described thus: SPR Biacore, OSMR on chip.
Chain of Feline_OSMR_hlgG1_Fc (feline) (chain, as listed by the source limits assumed, form in doubt): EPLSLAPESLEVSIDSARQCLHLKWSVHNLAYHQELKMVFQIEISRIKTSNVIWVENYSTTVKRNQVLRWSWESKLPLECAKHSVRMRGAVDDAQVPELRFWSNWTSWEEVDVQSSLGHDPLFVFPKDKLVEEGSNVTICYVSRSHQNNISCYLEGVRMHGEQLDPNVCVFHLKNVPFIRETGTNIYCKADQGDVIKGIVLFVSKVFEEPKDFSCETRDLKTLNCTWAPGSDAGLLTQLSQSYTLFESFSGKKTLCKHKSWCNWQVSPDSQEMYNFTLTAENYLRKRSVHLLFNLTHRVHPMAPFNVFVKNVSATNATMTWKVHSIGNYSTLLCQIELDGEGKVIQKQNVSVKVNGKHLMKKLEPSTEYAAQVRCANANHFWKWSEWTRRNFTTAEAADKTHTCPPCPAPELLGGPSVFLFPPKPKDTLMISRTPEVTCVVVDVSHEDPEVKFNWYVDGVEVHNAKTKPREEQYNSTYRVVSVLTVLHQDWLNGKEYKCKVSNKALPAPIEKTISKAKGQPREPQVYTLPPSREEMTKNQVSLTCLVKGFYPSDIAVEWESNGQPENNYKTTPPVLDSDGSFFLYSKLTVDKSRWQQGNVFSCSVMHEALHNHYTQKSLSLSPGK
In the case of B1, the Kd came to 2.37 nM, the koff turned out to be 0.000697 s⁻¹ and the kon was determined as 294000 M⁻¹ s⁻¹.

As to B2, the dissociation constant Kd is 0.022 nM, the koff was 4.4e-07 s⁻¹ and the kon turned out to be 20000 M⁻¹ s⁻¹.

Take B4: the Kd was 6.65 nM, the koff is 0.000942 s⁻¹ and the kon was determined as 142000 M⁻¹ s⁻¹.

Turning to B3, the Kd was determined as 44.5 nM, the koff turned out to be 0.002 s⁻¹ and the kon is 45100 M⁻¹ s⁻¹.

Another experiment concerns the target Feline_OSMR_hlgG1_Fc (feline). Briefly: indirect ELISA, fOSMR coated; OD ratio to antibody expression control. In general terms: An ELISA detects its analyte on a solid surface through an enzyme-linked reagent.
Take B1: the ELISA ratio came to 1.61 OD ratio.

As to B2, the ELISA ratio came to 1.76 OD ratio.

Consider B4, for which the ELISA ratio amounted to 1.61 OD ratio.

As for B3, the ELISA ratio turned out to be 1.72 OD ratio.
